Key:
Experiment in all cases: phage ELISA
[1] = biological target: T1, HCoV-HKU1 Spike/S1 Protein (HCoV-HKU1, UniProt Q0ZME7 13-756)
T1 construct: domain: Spike/S1; also called HKU1-HIS
T1 sequence: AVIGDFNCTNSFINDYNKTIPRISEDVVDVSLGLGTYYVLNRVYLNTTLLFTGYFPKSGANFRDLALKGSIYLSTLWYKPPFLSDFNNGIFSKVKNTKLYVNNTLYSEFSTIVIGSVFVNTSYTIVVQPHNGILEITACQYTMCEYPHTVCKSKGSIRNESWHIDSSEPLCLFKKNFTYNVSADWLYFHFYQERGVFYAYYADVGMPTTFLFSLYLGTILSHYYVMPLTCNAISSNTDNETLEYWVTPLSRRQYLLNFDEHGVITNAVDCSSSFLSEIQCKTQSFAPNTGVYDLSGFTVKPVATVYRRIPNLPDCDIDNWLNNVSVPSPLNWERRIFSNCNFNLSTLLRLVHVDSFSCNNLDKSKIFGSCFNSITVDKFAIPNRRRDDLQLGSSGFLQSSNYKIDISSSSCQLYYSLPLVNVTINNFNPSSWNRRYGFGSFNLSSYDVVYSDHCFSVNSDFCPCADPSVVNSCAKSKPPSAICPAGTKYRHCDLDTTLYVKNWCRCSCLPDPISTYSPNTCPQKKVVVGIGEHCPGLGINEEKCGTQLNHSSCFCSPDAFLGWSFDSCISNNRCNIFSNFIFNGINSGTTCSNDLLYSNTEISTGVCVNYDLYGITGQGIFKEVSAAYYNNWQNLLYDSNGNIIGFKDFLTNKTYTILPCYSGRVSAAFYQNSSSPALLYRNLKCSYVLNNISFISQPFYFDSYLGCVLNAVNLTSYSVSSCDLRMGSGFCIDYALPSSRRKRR

[2] = biological target: T2, HCoV-OC43 Spike Protein (HCoV-OC43, UniProt P36334 14-1297)
T2 construct: also called OC43-HIS
T2 sequence: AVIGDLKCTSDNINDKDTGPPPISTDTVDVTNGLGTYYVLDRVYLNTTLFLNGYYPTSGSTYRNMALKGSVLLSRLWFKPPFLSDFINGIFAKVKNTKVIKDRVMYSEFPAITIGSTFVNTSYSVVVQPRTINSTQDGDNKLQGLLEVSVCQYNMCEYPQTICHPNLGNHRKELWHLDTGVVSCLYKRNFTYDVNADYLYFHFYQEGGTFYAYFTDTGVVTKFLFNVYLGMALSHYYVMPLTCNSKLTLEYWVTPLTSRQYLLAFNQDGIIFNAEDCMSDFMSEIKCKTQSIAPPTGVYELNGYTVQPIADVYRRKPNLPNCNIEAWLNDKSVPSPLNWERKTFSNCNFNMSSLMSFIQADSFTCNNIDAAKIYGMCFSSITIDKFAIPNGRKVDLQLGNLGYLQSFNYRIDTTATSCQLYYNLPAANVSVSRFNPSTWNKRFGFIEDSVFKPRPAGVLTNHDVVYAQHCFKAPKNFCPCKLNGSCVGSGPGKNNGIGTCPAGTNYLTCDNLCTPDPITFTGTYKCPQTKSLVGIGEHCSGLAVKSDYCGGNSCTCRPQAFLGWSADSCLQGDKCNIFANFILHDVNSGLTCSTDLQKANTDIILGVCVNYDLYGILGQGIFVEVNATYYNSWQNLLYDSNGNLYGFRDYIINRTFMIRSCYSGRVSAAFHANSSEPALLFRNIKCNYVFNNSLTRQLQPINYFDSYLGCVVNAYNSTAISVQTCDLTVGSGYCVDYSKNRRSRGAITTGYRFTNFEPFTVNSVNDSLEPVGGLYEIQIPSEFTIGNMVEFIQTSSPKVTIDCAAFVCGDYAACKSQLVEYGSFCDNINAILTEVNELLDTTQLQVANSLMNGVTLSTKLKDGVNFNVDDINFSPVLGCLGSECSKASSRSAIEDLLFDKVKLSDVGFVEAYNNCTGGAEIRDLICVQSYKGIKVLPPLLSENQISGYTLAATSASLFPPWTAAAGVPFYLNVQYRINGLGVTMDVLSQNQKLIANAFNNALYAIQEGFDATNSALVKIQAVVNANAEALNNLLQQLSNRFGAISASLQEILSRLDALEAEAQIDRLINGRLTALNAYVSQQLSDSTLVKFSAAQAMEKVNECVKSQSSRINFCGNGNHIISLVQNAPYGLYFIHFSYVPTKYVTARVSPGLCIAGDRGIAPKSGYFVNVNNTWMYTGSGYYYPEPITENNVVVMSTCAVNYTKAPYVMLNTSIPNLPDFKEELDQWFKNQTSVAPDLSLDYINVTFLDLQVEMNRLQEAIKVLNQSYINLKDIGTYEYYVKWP

[3] = biological target: T3, HCoV-229E Spike/S1 Protein (HCoV-229E, UniProt P15423 16-536)
T3 construct: domain: Spike/S1; also called 229E-HIS
T3 sequence: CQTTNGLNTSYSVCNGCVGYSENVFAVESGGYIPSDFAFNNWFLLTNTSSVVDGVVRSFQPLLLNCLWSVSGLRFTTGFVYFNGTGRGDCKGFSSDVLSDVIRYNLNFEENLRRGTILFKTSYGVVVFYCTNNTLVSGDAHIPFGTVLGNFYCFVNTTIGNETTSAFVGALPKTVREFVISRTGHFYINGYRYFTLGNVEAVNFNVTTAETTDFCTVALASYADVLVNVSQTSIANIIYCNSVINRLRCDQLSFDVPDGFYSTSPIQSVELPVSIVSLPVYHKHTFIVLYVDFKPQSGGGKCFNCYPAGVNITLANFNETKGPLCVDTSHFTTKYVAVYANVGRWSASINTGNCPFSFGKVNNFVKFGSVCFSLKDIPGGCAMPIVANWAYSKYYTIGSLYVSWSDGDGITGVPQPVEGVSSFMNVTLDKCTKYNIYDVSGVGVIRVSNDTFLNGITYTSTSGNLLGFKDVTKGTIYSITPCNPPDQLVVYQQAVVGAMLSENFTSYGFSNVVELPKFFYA

[4] = biological target: T4, HCoV-NL63 Spike/S1 Protein (HCoV-NL63, UniProt Q6Q1S2 19-717)
T4 construct: domain: Spike/S1; also called NL63-HIS
T4 sequence: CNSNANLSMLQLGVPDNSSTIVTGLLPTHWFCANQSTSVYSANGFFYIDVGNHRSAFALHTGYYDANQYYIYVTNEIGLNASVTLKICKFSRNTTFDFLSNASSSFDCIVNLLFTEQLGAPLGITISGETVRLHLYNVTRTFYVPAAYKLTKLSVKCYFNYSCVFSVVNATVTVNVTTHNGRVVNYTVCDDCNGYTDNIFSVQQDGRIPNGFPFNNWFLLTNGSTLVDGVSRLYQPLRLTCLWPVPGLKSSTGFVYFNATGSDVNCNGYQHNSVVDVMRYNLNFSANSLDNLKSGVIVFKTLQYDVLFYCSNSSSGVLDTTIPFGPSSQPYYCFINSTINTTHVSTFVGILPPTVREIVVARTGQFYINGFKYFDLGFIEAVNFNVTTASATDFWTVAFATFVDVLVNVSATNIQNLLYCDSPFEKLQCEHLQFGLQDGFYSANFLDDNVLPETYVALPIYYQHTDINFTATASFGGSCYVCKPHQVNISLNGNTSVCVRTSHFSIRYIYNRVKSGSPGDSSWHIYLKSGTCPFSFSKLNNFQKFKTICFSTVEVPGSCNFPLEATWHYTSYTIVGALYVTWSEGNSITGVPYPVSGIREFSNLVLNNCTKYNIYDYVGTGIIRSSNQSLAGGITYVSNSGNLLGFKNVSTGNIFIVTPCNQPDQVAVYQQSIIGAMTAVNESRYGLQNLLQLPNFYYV

Measured: binding result

B1: phage clone #20 (scFv)
scFv: SYVLTQPPSASGTPGQRVTISCSGSSSNIGSNTVNWYQQLPGTAPKLLIYSNNQRPSGVPDRFSASKSGTSASLAISGFQSEDEADYYCAAWDDSLDGYVFGTGTKVTVLGSRGGGGSGGGGSGGGGSLEMAEVQLVQSGAEVKKPGESLKISCKGSGYSFPSYWIGWVRQMPGKGLEWMGIIYPGDSDTRYSPSFQGQVTISADKSISTAYLQWSSLKASDTAMYYCARGSYTYMGGSYDYWGQGTLVTVSSTSGQAGQ
no binding: all assays above

B2: phage clone #19 (scFv)
scFv: QSALTQPASVSGSPGQSITISCTGTSSDVGGYNYVSWYQQHPGKVPKLMIYEVSNRPSGVSNRFSGSKSGNTASLTISGLQAEDEADYYCSSYTSGDTLVFGGGTKVTVLGSRGGGGSGGGGSGGGGSLEMAELQLVESGGGVVQPGRSPRLSCAASGFTFSNYPMHWVRQAPGKGLEWVAVISYDGNHKYYADSLEGRFSISRDNSKNTLYLQMNSLTAADTAVYYCARGGGMGGLDSWGQGTLVTVSSTSGQAGQ
no binding: all assays above

B3: phage clone #13 (scFv)
scFv: QSVLTQPPSASGTPGQRVTISCSGSSSNIGSNYVYWYQQLPGTAPKLLIYRNNQRPSGVPDRFSGSKSGTSASLAISGLRSEDEADYYCAAWDDSLSGPNYVFGTGTKVTVLGSRGGGGSGGGGSGGGGSLEMAQVQLVQSGAEVKKPGSSVKVSCKASGGTFSSYAISWVRQAPGQGLEWMGWISGYNGNTNYAQKLQGRVTMTTDTSTSTAYMELRSLRSDDTAVYYCARTGWSKGEKVTTWGEWFYVDYWGQGTLVTVSSTSGQAGQ
no binding: all assays above

B4: phage clone #30 (scFv)
scFv: QSALTQPPSASGSPGQSVTISCTGTSSDVGGYDYVSWYQQHPGKAPKLMIYEVSKRPSGVSNRFSGSKSGNTASLTISGLQAEDEADYYCSSYTSSSTFPYVFGTGTKVTVLGSRGGGGSGGGGSGGGGSLEMAEVQLVESGGGLEQPGGSLRLSCAASGFTFSSYAMSWVRQAPGKGLEWVSAISASGNSTFYADSVKGRFTISRDNSKHTLDLQMNSLRADDTAVYYCARNSDVWGQGTLVTVSSTSGQAGQ
no binding: all assays above

From patent US20230141962A1 (published 2023)
